Measurements from the supplement of paper PMC11316812.
± gives the standard deviation of the averaged measurements.

Legend:
hTERT-HMEC = assay: percentage of EdU-negative (G0-arrested) nuclei per well, 72 h; higher = more G0 arrest; settings: reference: sequence is the full UniProt precursor, the tested protein was the secreted form or ectodomain
MCF7 = assay: as above; settings: reference: sequence is the full UniProt precursor, the tested protein was the secreted form or ectodomain
[1] = protein concentration 0.00685714 µM
[2] = protein concentration 0.0685714 µM
[3] = protein concentration 0.0175 µM
[4] = protein concentration 0.03125 µM
[5] = protein concentration 0.3125 µM
[6] = protein concentration 0.0225 µM
[7] = protein concentration 0.02175 µM
[8] = protein concentration 0.2175 µM
[9] = protein concentration 0.0305714 µM
[10] = protein concentration 0.305714 µM
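Further: secreted proteins added to cultured cells, EdU pulse at the end, nuclei found by Hoechst imaging, EdU status from nuclear versus surrounding ring intensity ratio, PBS as neutral control.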

MSAAWIPALGLGVCLLLLPGPAGSEGAAPIAITCFTRGLDIRKEKADVLCPGGCPLEEFSVYGNIVYASVSSICGAAVHRGVISNSGGPVRVYSLPGRENYSSVDANGIQSQMLSRWSASFTVTKGKSSTQEATGQAVSTAHPPTGKRLKKTPEKKTGNKDCKADIAFLIDGSFNIGQRRFNLQKNFVGKVALMLGIGTEGPHVGLVQASEHPKIEFYLKNFTSAKDVLFAIKEVGFRGGNSNTGKALKHTAQKFFTVDAGVRKGIPKVVVVFIDGWPSDDIEEAGIVAREFGVNVFIVSVAKPIPEELGMVQDVTFVDKAVCRNNGFFSYHMPNWFGTTKYVKPLVQKLCTHEQMMCSKTCYNSVNIAFLIDGSSSVGDSNFRLMLEFVSNIAKTFEISDIGAKIAAVQFTYDQRTEFSFTDYSTKENVLAVIRNIRYMSGGTATGDAISFTVRNVFGPIRESPNKNFLVIVTDGQSYDDVQGPAAAAHDAGITIFSVGVAWAPLDDLKDMASKPKESHAFFTREFTGLEPIVSDVIRGICRDFLESQQ
percentage of EdU-negative (hTERT-HMEC; [1]): 4.89 ± 0.28%
percentage of EdU-negative (hTERT-HMEC; [2]): 7.63 ± 0.47%
percentage of EdU-negative (MCF7; [1]): 23.1 ± 2.5%
percentage of EdU-negative (MCF7; [2]): 25.4 ± 0.26%

MSAFRLWPGLLIMLGSLCHRGSPCGLSTHVEIGHRALEFLQLHNGRVNYRELLLEHQDAYQAGIVFPDCFYPSICKGGKFHDVSESTHWTPFLNASVHYIRENYPLPWEKDTEKLVAFLFGITSHMAADVSWHSLGLEQGFLRTMGAIDFHGSYSEAHSAGDFGGDVLSQFEFNFNYLARRWYVPVKDLLGIYEKLYGRKVITENVIVDCSHIQFLEMYGEMLAVSKLYPTYSTKSPFLVEQFQEYFLGGLDDMAFWSTNIYHLTSFMLENGTSDCNLPENPLFIACGGQQNHTQGSKMQKNDFHRNLTTSLTESVDRNINYTERGVFFSVNSWTPDSMSFIYKALERNIRTMFIGGSQLSQKHVSSPLASYFLSFPYARLGWAMTSADLNQDGHGDLVVGAPGYSRPGHIHIGRVYLIYGNDLGLPPVDLDLDKEAHRILEGFQPSGRFGSALAVLDFNVDGVPDLAVGAPSVGSEQLTYKGAVYVYFGSKQGGMSSSPNITISCQDIYCNLGWTLLAADVNGDSEPDLVIGSPFAPGGGKQKGIVAAFYSGPSLSDKEKLNVEAANWTVRGEEDFSWFGYSLHGVTVDNRTLLLVGSPTWKNASRLGHLLHIRDEKKSLGRVYGYFPPNGQSWFTISGDKAMGKLGTSLSSGHVLMNGTLKQVLLVGAPTYDDVSKVAFLTVTLHQGGATRMYALTSDAQPLLLSTFSGDRRFSRFGGVLHLSDLDDDGLDEIIMAAPLRIADVTSGLIGGEDGRVYVYNGKETTLGDMTGKCKSWITPCPEEKAQYVLISPEASSRFGSSLITVRSKAKNQVVIAAGRSSLGARLSGALHVYSLGSD
percentage of EdU-negative (hTERT-HMEC; [3]): 4.66 ± 0.8%
percentage of EdU-negative (hTERT-HMEC; protein concentration 0.175 µM): 7.38 ± 0.61%
percentage of EdU-negative (MCF7; [3]): 25.88 ± 0.089%
percentage of EdU-negative (MCF7; protein concentration 0.175 µM): 31.8 ± 1.3%

MSALGAVIALLLWGQLFAVDSGNDVTDIADDGCPKPPEIAHGYVEHSVRYQCKNYYKLRTEGDGVYTLNDKKQWINKAVGDKLPECEADDGCPKPPEIAHGYVEHSVRYQCKNYYKLRTEGDGVYTLNNEKQWINKAVGDKLPECEAVCGKPKNPANPVQRILGGHLDAKGSFPWQAKMVSHHNLTTGATLINEQWLLTTAKNLFLNHSENATAKDIAPTLTLYVGKKQLVEIEKVVLHPNYSQVDIGLIKLKQKVSVNERVMPICLPSKDYAEVGRVGYVSGWGRNANFKFTDHLKYVMLPVADQDQCIRHYEGSTVPEKKTPKSPVGVQPILNEHTFCAGMSKYQEDTCYGDAGSAFAVHDLEEDTWYATGILSFDKSCAVAEYGVYVKVTSIQDWVQKTIAEN
percentage of EdU-negative (hTERT-HMEC; [4]): 4.46 ± 0.32%
percentage of EdU-negative (hTERT-HMEC; [5]): 5.96 ± 1.1%
percentage of EdU-negative (MCF7; [4]): 23.8 ± 3%
percentage of EdU-negative (MCF7; [5]): 23.1 ± 0.73%

MSALWLLLGLLALMDLSESSNWGCYGNIQSLDTPGASCGIGRRHGLNYCGVRASERLAEIDMPYLLKYQPMMQTIGQKYCMDPAVIAGVLSRKSPGDKILVNMGDRTSMVQDPGSQAPTSWISESQVSQTTEVLTTRIKEIQRRFPTWTPDQYLRGGLCAYSGGAGYVRSSQDLSCDFCNDVLARAKYLKRHGF [Q8N1E2]
percentage of EdU-negative (hTERT-HMEC; [6]): 4.76 ± 1.4%
percentage of EdU-negative (hTERT-HMEC; protein concentration 0.225 µM): 6.97 ± 0.29%
percentage of EdU-negative (MCF7; [6]): 25.6 ± 2%
percentage of EdU-negative (MCF7; protein concentration 0.225 µM): 25.2 ± 0.58%

MSAVLLLALLGFILPLPGVQALLCQFGTVQHVWKVSDLPRQWTPKNTSCDSGLGCQDTLMLIESGPQVSLVLSKGCTEAKDQEPRVTEHRMGPGLSLISYTFVCRQEDFCNNLVNSLPLWAPQPPADPGSLRCPVCLSMEGCLEGTTEEICPKGTTHCYDGLLRLRGGGIFSNLRVQGCMPQPGCNLLNGTQEIGPVGMTENCNRKDFLTCHRGTTIMTHGNLAQEPTDWTTSNTEMCEVGQVCQETLLLLDVGLTSTLVGTKGCSTVGAQNSQKTTIHSAPPGVLVASYTHFCSSDLCNSASSSSVLLNSLPPQAAPVPGDRQCPTCVQPLGTCSSGSPRMTCPRGATHCYDGYIHLSGGGLSTKMSIQGCVAQPSSFLLNHTRQIGIFSAREKRDVQPPASQHEGGGAEGLESLTWGVGLALAPALWWGVVCPSC [Q8N6Q3]
percentage of EdU-negative (hTERT-HMEC; [7]): 4.87 ± 0.96%
percentage of EdU-negative (hTERT-HMEC; [8]): 6.31 ± 0.15%
percentage of EdU-negative (MCF7; [7]): 26.1 ± 2.3%
percentage of EdU-negative (MCF7; [8]): 26.7 ± 1%

MSCPVPACCALLLVLGLCRARPRNALLLLADDGGFESGAYNNSAIATPHLDALARRSLLFRNAFTSVSSCSPSRASLLTGLPQHQNGMYGLHQDVHHFNSFDKVRSLPLLLSQAGVRTGIIGKKHVGPETVYPFDFAYTEENGSVLQVGRNITRIKLLVRKFLQTQDDRPFFLYVAFHDPHRCGHSQPQYGTFCEKFGNGESGMGRIPDWTPQAYDPLDVLVPYFVPNTPAARADLAAQYTTVGRMDQGVGLVLQELRDAGVLNDTLVIFTSDNGIPFPSGRTNLYWPGTAEPLLVSSPEHPKRWGQVSEAYVSLLDLTPTILDWFSIPYPSYAIFGSKTIHLTGRSLLPALEAEPLWATVFGSQSHHEVTMSYPMRSVQHRHFRLVHNLNFKMPFPIDQDFYVSPTFQDLLNRTTAGQPTGWYKDLRHYYYRARWELYDRSRDPHETQNLATDPRFAQLLEMLRDQLAKWQWETHDPWVCAPDGVLEEKLSPQCQPLHNEL
percentage of EdU-negative (hTERT-HMEC; [6]): 5.35 ± 1.4%
percentage of EdU-negative (hTERT-HMEC; protein concentration 0.225 µM): 7.84 ± 0.29%
percentage of EdU-negative (MCF7; [6]): 28.4 ± 3.8%
percentage of EdU-negative (MCF7; protein concentration 0.225 µM): 26.4 ± 0.34%

MSDLGAVISLLLWGRQLFALYSGNDVTDISDDRFPKPPEIANGYVEHLFRYQCKNYYRLRTEGDGVYTLNDKKQWINKAVGDKLPECEAVCGKPKNPANPVQRILGGHLDAKGSFPWQAKMVSHHNLTTGATLINEQWLLTTAKNLFLNHSENATAKDIAPTLTLYVGKKQLVEIEKVVLHPNYHQVDIGLIKLKQKVLVNERVMPICLPSKNYAEVGRVGYVSGWGQSDNFKLTDHLKYVMLPVADQYDCITHYEGSTCPKWKAPKSPVGVQPILNEHTFCVGMSKYQEDTCYGDAGSAFAVHDLEEDTWYAAGILSFDKSCAVAEYGVYVKVTSIQHWVQKTIAEN
percentage of EdU-negative (hTERT-HMEC; protein concentration 0.029 µM): 4.84 ± 0.049%
percentage of EdU-negative (hTERT-HMEC; protein concentration 0.29 µM): 4.84 ± 0.17%
percentage of EdU-negative (MCF7; protein concentration 0.029 µM): 26.82 ± 0.23%
percentage of EdU-negative (MCF7; protein concentration 0.29 µM): 26.1 ± 1.1%

MSDSKEPRLQQLGLLEEEQLRGLGFRQTRGYKSLAGCLGHGPLVLQLLSFTLLAGLLVQVSKVPSSISQEQSRQDAIYQNLTQLKAAVGELSEKSKLQEIYQELTQLKAAVGELPEKSKLQEIYQELTRLKAAVGELPEKSKLQEIYQELTWLKAAVGELPEKSKMQEIYQELTRLKAAVGELPEKSKQQEIYQELTRLKAAVGELPEKSKQQEIYQELTRLKAAVGELPEKSKQQEIYQELTQLKAAVERLCHPCPWEWTFFQGNCYFMSNSQRNWHDSITACKEVGAQLVVIKSAEEQNFLQLQSSRSNRFTWMGLSDLNQEGTWQWVDGSPLLPSFKQYWNRGEPNNVGEEDCAEFSGNGWNDDKCNLAKFWICKKSAASCSRDEEQFLSPAPATPNPPPA [Q9NNX6]
percentage of EdU-negative (hTERT-HMEC; [9]): 4.977 ± 0.027%
percentage of EdU-negative (hTERT-HMEC; [10]): 17 ± 4.1%
percentage of EdU-negative (MCF7; [9]): 26.2 ± 1%
percentage of EdU-negative (MCF7; [10]): 26.5 ± 0.49%

MSDSKEPRVQQLGLLEEDPTTSGIRLFPRDFQFQQIHGHKSSTGCLGHGALVLQLLSFMLLAGVLVAILVQVSKVPSSLSQEQSEQDAIYQNLTQLKAAVGELSEKSKLQEIYQELTQLKAAVGELPEKSKLQEIYQELTRLKAAVGELPEKSKLQEIYQELTRLKAAVGELPEKSKLQEIYQELTRLKAAVGELPEKSKLQEIYQELTELKAAVGELPEKSKLQEIYQELTQLKAAVGELPDQSKQQQIYQELTDLKTAFERLCRHCPKDWTFFQGNCYFMSNSQRNWHDSVTACQEVRAQLVVIKTAEEQNFLQLQTSRSNRFSWMGLSDLNQEGTWQWVDGSPLSPSFQRYWNSGEPNNSGNEDCAEFSGSGWNDNRCDVDNYWICKKPAACFRDE [Q9H2X3]
percentage of EdU-negative (hTERT-HMEC; [6]): 5.68 ± 0.32%
percentage of EdU-negative (hTERT-HMEC; protein concentration 0.225 µM): 6.17 ± 0.82%
percentage of EdU-negative (MCF7; [6]): 27 ± 3.5%
percentage of EdU-negative (MCF7; protein concentration 0.225 µM): 23.8 ± 2.6%

MSEEVTYADLQFQNSSEMEKIPEIGKFGEKAPPAPSHVWRPAALFLTLLCLLLLIGLGVLASMFHVTLKIEMKKMNKLQNISEELQRNISLQLMSNMNISNKIRNLSTTLQTIATKLCRELYSKEQEHKCKPCPRRWIWHKDSCYFLSDDVQTWQESKMACAAQNASLLKINNKNALEFIKSQSRSYDYWLGLSPEEDSTRGMRVDNIINSSAWVIRNAPDLNNMYCGYINRLYVQYYHCTYKKRMICEKMANPVQLGSTYFREA [Q5QGZ9]
percentage of EdU-negative (hTERT-HMEC; [6]): 4.07 ± 0.067%
percentage of EdU-negative (hTERT-HMEC; protein concentration 0.225 µM): 4.99 ± 0.84%
percentage of EdU-negative (MCF7; [6]): 25.2 ± 1.6%
percentage of EdU-negative (MCF7; protein concentration 0.225 µM): 28.95 ± 0.13%
